Results taken from the supplement of paper PMC10724198.
± gives the standard deviation of the averaged measurements.

Test system: Saccharomyces cerevisiae
Experiment: protein stability index of tFT-peptide fusion (C-terminal peptide) (PSI (0-1 scale)); higher = more stable (slower turnover)
Conditions: genetic background: wild type; temperature: 30 C
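Note: PSI is a weighted mean of sequencing reads over stability bins, variants kept only with over 10 reads, mCherry proximal and sfGFP distal, peptide attached via GGGS linker.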

Sequence	protein stability index
RKRSRQLNRQLK	0.603 ± 0.0074
RKTKKKKENKRR	0.7131 ± 0.0043
RKTSIKNKKKKI	0.693 ± 0.059
RKVTSIESGVMT	0.655 ± 0.038
RKVYHSTRNTRK	0.702 ± 0.11
RLCFAPRVLPTH	0.604 ± 0.041
RLDMKLAIDISR	0.7631 ± 0.0011
RLDRARTPPAST	0.779 ± 0.05
RLEGNRGPWRQD	0.786 ± 0.1
RLFCLRSVSLVS	0.572 ± 0.015
RLIHRLLGLFPS	0.69 ± 0.06
RLILLPLFLSDS	0.729 ± 0.092
RLITGTKLFNGM	0.765 ± 0.045
RLKLKSECYSPL	0.667 ± 0.034
RLLLRNAASSSS	0.691 ± 0.042
RLLPPSPPPPPS	0.667 ± 0.035
RLPHPHPVRSLP	0.7 ± 0.022
RLPSSPPSATWL	0.6784 ± 0.0019
RLPSSSFSPHRA	0.688 ± 0.0069
RLRKEKGKKIQY	0.697 ± 0.073
RLRPLSPPTLCD	0.665 ± 0.044
RLRRLYSLRTYL	0.543 ± 0.033
RLTSPPYSFFLH	0.644 ± 0.019
RLVHSRPPPFAS	0.794 ± 0.13
RMRRAHCQQSGG	0.6537 ± 0.0037
RNEDYQKKRKGK	0.701 ± 0.022

Sequence	protein stability index
RNIRGDYKGRRL	0.6455 ± 0.0019
RNKHREEIERQT	0.672 ± 0.031
RNKKDIKIQIKR	0.68 ± 0.049
RNKKIKKKKGRN	0.701 ± 0.069
RNKRPDQRERKQ	0.692 ± 0.17
RNLHVSMGKCSP	0.722 ± 0.21
RNLRCDIVNVYP	0.759 ± 0.015
RNRLTTMCRHLE	0.655 ± 0.062
RNRNDRIKKLKR	0.667 ± 0.014
RPAAPGSKGDDN	0.7 ± 0.043
RPAGGPRGGEGV	0.648 ± 0.058
RPAMSPPPLCPP	0.625 ± 0.027
RPASVHDLSLQC	0.681 ± 0.033
RPCDLISGFCGL	0.695 ± 0.012
RPDSPSPLPPPP	0.637 ± 0.028
RPELRRETARVR	0.644 ± 0.038
RPEVRTGPASTH	0.676 ± 0.032
RPFLLWRVVTPL	0.611 ± 0.016
RPGLCLTFFSAH	0.666 ± 0.032
RPGSWINEITKE	0.69944 ± 0.00024
RPKVSRIKENKY	0.727 ± 0.02
RPLPLRLDGSGS	0.719 ± 0.047
RPLPPPPAPPPL	0.706 ± 0.029
RPLSPPSAPTSF	0.679 ± 0.0055
RPLTSVTPLPTL	0.6988 ± 0.0067
RPLVYIKHLALL	0.44 ± 0.17

Sequence	protein stability index
RPNTVHLQALYN	0.6802 ± 0.0046
RPNWSRFTSIYA	0.653 ± 0.016
RPPINRLCPWLL	0.671 ± 0.032
RPPLIPAALLFL	0.589 ± 0.048
RPPLLPPLDAPS	0.713 ± 0.027
RPPLPPPPPLPP	0.578 ± 0.03
RPPPPRPRSLLS	0.654 ± 0.097
RPPPRSPPLPRL	0.806 ± 0.03
RPPPSAIPPPSP	0.6274 ± 0.0014
RPPTASPLVAPA	0.655 ± 0.0067
RPRCAPSPPLPP	0.691 ± 0.047
RPSLEKQETEKT	0.696 ± 0.056
RPSLSRSSLLSP	0.701 ± 0.032
RPTSPCPNHRLE	0.667 ± 0.097
RQCGKGGKEGAA	0.653 ± 0.051
RQFVTACPLWRH	0.676 ± 0.046
RQQKTNERRPRT	0.648 ± 0.04
RQWAISRRWVVR	0.562 ± 0.021
RQYCTRDHNIIK	0.732 ± 0.025
RRAGGARGKTSE	0.645 ± 0.014
RRAGRGGIGKGG	0.591 ± 0.018
RRDLKNVRLPDR	0.675 ± 0.055
RRESAGFGLVWG	0.709 ± 0.017
RRFPYGPFDFSI	0.6645 ± 0.0049
RRGCTKYGSYII	0.696 ± 0.082
RRGCYLFTPRPG	0.648 ± 0.015

Sequence	protein stability index
RRGLRVTETPVR	0.772 ± 0.011
RRGWRRGGLGNG	0.683 ± 0.052
RRHGDVGFGVGW	0.82 ± 0.1
RRHPRLPSLSGL	0.651 ± 0.044
RRIVAPYSGEAA	0.774 ± 0.013
RRKEEEGKEVRK	0.666 ± 0.01
RRMDGHLRELPA	0.685 ± 0.058
RRNARRARARWR	0.637 ± 0.065
RRNPTCPSGTQK	0.7 ± 0.021
RRPFPSSVVFPH	0.702 ± 0.023
RRPRIANIETDY	0.678 ± 0.0046
RRRGRGAVGATR	0.716 ± 0.073
RRRLLCVCDLMM	0.576 ± 0.038
RRSCSMQISSRN	0.642 ± 0.045
RRSLSVYPRFRT	0.714 ± 0.037
RRSRFSGACLLM	0.773 ± 0.13
RRTRRSTGHATG	0.665 ± 0.043
RRTSPNKNLKNQ	0.618 ± 0.097
RRVPTDQYRLLE	0.696 ± 0.027
RRVYGRELHPSQ	0.731 ± 0.029
RRWATGGVIGGR	0.677 ± 0.0074
RSALVPPRLPAS	0.675 ± 0.075
RSCAHATLAYVP	0.771 ± 0.082
RSDCLIDSRMVD	0.694 ± 0.094
RSDRDGPPRGDS	0.719 ± 0.087
RSFPPPPARSLP	0.711 ± 0.039

Sequence	protein stability index
RSGCGYCLVRLG	0.541 ± 0.0007
RSGGSSPRRLFT	0.7 ± 0.0095
RSHAHTRNGSSA	0.675 ± 0.022
RSHLLPPPRHQH	0.7333 ± 0.00099
RSLGGGVGARFV	0.695 ± 0.037
RSLSPPPASPIP	0.6755 ± 0.0051
RSLYGLMNPPRG	0.71 ± 0.011
RSNLGLNLVLAI	0.591 ± 0.031
RSNNKFAKPIQY	0.663 ± 0.11
RSPHLPTARSSQ	0.723 ± 0.018
RSPLPHPPPHSY	0.612 ± 0.054
RSPPLEPTLDPL	0.785 ± 0.1
RSPTRHAPPRPV	0.639 ± 0.095
RSRDDAGASLHL	0.6666 ± 0.0054
RSRKICYREEKR	0.644 ± 0.029
RSSDRGDVRATC	0.689 ± 0.062
RSSGHQIRDKSA	0.74 ± 0.022
RSSNNQRARPPQ	0.627 ± 0.028
RSSYTLLLPPLR	0.624 ± 0.0074
RSTGGHGSQAGR	0.711 ± 0.04
RSTRDKTRLAKD	0.743 ± 0.11
RSTRLPGFNRRE	0.662 ± 0.0062
RSTTDVADNSRP	0.631 ± 0.032
RSWVGVEWVGGM	0.595 ± 0.094
RTDTKPTGEHEA	0.694 ± 0.045
RTFKYERNLEVY	0.596 ± 0.046

Sequence	protein stability index
RTFTLCSPSPCA	0.645 ± 0.059
RTPAPENPPTSP	0.609 ± 0.06
RTPYFGPLAQIA	0.622 ± 0.023
RTQGVWYHGVRR	0.745 ± 0.071
RTQRGRMVGEQG	0.732 ± 0.11
RTQYEVGVGTGG	0.692 ± 0.021
RTRAPSKHAPER	0.841 ± 0.16
RTSLRYLKRVER	0.669 ± 0.076
RTSQLVSRATLD	0.691 ± 0.019
RTSRKKMLNFKY	0.66688 ± 0.00034
RTSYIKNQKKKG	0.699 ± 0.013
RTTKRNDYLSHI	0.699 ± 0.08
RVALVCGLGCIF	0.683 ± 0.029
RVEELKFKNLII	0.6633 ± 0.004
RVFLAVCYGCRV	0.5659 ± 0.0034
RVGLCGSSLGVI	0.742 ± 0.078
RVIPRTRISLLS	0.575 ± 0.0075
RVLASVGCYLFW	0.641 ± 0.015
RVLKIIGFITYA	0.56 ± 0.034
RVLLLTGAFELV	0.585 ± 0.028
RVLWGTESFIDL	0.7383 ± 0.0048
RVMGDAAGCGGV	0.707 ± 0.062
RVRRAGSGWCGK	0.729 ± 0.0073
RVSLELEIIPPS	0.706 ± 0.05
RVSLGHGRAFWP	0.711 ± 0.083
RVSPGGLCALSV	0.701 ± 0.051

Sequence	protein stability index
RVSVGGSVRLFG	0.711 ± 0.04
RVSWRLSYLCPV	0.694 ± 0.14
RVTLWDGSRSRI	0.711 ± 0.017
RVTNLQSRHTLH	0.692 ± 0.023
RVVEFGFGGCHW	0.758 ± 0.061
RVVEPKWDWRRG	0.68 ± 0.032
RVVGGWGEAWRE	0.744 ± 0.0091
RVVPTKTIAGSA	0.6502 ± 0.0014
RVVWVWLMSALF	0.54 ± 0.034
RVWERGRGGDGC	0.679 ± 0.017
RVWIWHPPTVRD	0.625 ± 0.016
RWATLSREFYQI	0.526 ± 0.023
RWFILCRSLPTG	0.613 ± 0.071
RWGGGGSVSFWW	0.712 ± 0.053
RWGGRTASVPCG	0.754 ± 0.015
RWGGSSPGRSFA	0.766 ± 0.0091
RWRFSARSRLSR	0.642 ± 0.013
RWSVSLAVTVLL	0.503 ± 0.011
RYAEVGSLVSFL	0.714 ± 0.0087
RYEQRKNRRQKL	0.799 ± 0.017
RYGDGIELVIGS	0.657 ± 0.011
RYHQNTKKTSDI	0.7119 ± 0.0016
RYLLCSSVESAV	0.639 ± 0.028
RYLLPYQRRLFL	0.745 ± 0.26
RYNRVVCTEFHL	0.668 ± 0.01
RYRSQNNKKLEE	0.658 ± 0.024

Sequence	protein stability index
SADILGLPRYLT	0.656 ± 0.023
SAFLPPLSPFSP	0.753 ± 0.037
SAFPSRVIGGGV	0.661 ± 0.01
SAGDLFVFEYLG	0.6759 ± 0.0024
SALRWPRPVLRV	0.619 ± 0.017
SAPCSFCPPPPG	0.667 ± 0.026
SAPLASRLCLFA	0.644 ± 0.0065
SAPSPPPPLAPP	0.679 ± 0.041
SAQSAGRQRLQK	0.695 ± 0.014
SARDQGISCAEC	0.674 ± 0.04
SASPEGTQRSPW	0.761 ± 0.14
SASPPLAERRGQ	0.655 ± 0.043
SASPVAGWLGGP	0.677 ± 0.044
SATRLGLGLCWV	0.6383 ± 0.0039
SAVRHPRPGRPG	0.6938 ± 0.0053
SCCTITVPERPR	0.653 ± 0.045
SCIAVRDPWGLV	0.683 ± 0.018
SCLFGIFRWWVG	0.568 ± 0.025
SCLFRVFMFHFS	0.553 ± 0.04
SCLMSFAFFASL	0.619 ± 0.016
